Measured values as given in patent publication US20140080161A1, “PHOSPHATASE COUPLED KINASE ASSAY” (RESEARCH AND DIAGNOSTIC SYSTEMS, INC., priority 2010, published 2014).

Key:
[1] = Phosphatase coupled kinase assay, ERK1 specific activity; assay type: biochemical; conditions: 4 mM ATP, 4 mM MBP peptide
Description: (§1) The kinase reactions were carried out in 50 μL of kinase assay buffer including 25 mM Tris, 150 mM NaCl, 5 mM MgCl2, and 5 mM CaCl2 at pH 7.5 in a 96 well plate at room temperature. Each reaction was stopped with 30 μL of Malachite Reagent A and 100 μL of water. The color was developed with 30 μL Malachite Reagent B. The plate was read at 620 nm with a multi-well plate reader. If the predicted phosphate content in the reaction was above 4,000 pmol, the reaction was diluted before phosphate detection.
A series of reactions were performed with extracellular signal-regulated kinase 1 (ERK1) as the kinase. Various amounts of ERK1 (0, 0.1, 0.2, 0.4 and 0.8 μg) were combined with 4 mM ATP, 4 mM MBP peptide acceptor substrate, and 0.2 μg CD39L2. […] The reactions were stopped after 20 minutes, the Malachite Green assay was performed as described above, and the OD was measured at 620 nm. The results are shown in FIG. 10, wherein the OD reading is plotted against the quantity of ERK1. This plot was then used to determine the specific activity of ERK1. The specific activity was calculated by first determining the slope of the curve (0.7728 OD/μg), which was then multiplied by a conversion factor (4081 pmol/OD) and divided by the reaction time (20 minutes) (0.7728 OD/μg×4081 pmol/OD/20 min=157.69 pmol/min/μg). The coupling efficiency of rhCD39L2 in 4 mM ATP was predicted to be 0.4 based on the data of Example 3 (FIG. 5). The specific activity of the ERK1 was then adjusted for the coupling efficiency and was calculated to be 394.22 pmol/min/μg. (157.69 pmol/min/μg/0.4=394.22 pmol/min/μg)

[2] = ADP hydrolysis curve with increasing amounts of phosphatase, free phosphate by Malachite Green; assay type: biochemical; conditions: 5 minutes
Text: The relative activity of the phosphatase on ADP and ATP can be measured by creating hydrolysis curves for ADP and ATP. For example, such hydrolysis curves may be created by performing a series of reactions separately combining set quantities of ADP or ATP with varying quantities of phosphatase and detecting the free phosphate produced. An example of such curves is described in Example 1 below. The resulting phosphate levels (or OD readings, which directly correspond to the phosphate levels) can be plotted against the amount of phosphatase used. The phosphate level or OD readings can be compared at the same quantity of the phosphatase to determine the relative activity of the phosphatase for ADP as compared to ATP. […] The amount of phosphatase to be used for kinase reactions is preferably selected from within the rapidly rising portion of the ADP hydrolysis curve. In addition, the relative activity of the phosphatase for ADP versus ATP is preferably compared within this rapidly rising portion of the hydrolysis curve, at or near the steepest portion of the curve. At phosphatase levels below this range, the generated signals are weak, while at phosphatase levels above this range, the ADP hydrolysis approaches completion, which could underestimate the activity of the phosphatase on ADP due to exhaustion of the substrate.
as §1
In this experiment, the relative activity of rhCD39L2 on ADP and ATP was determined. In a first series of reactions, 100 nmol of 2 mM ATP was combined with increasing amounts of rhCD39L2 (0.03125 μg, 0.0625 μg, 0.125 μg, 0.25 μg, 0.5 μg) for 20 minutes. Likewise in a second series of reactions, 100 nmol of 2 mM ADP was combined with the same increasing amounts of rhCD39L2 for 20 minutes. The reactions were stopped after 20 minutes and free phosphate was measured using the Malachite Green assay as described above.
The relative activity of recombinant mouse CD 39L2 (rmCD39L2) on ADP and ATP was determined in a series of reactions similar to Example 1. 100 nmol of 2 mM ATP was combined with increasing amounts of rmCD39L2 (0.03125 μg, […], 0.125 0.25 μg, 0.5 μg). Likewise in a second series of reactions, 100 nmol of 2 mM ADP was combined with the same increasing amounts of rmCD39L2. The reactions were stopped after 5 minutes and free phosphate was measured using the Malachite Green assay as described above.
The experiment of Example 1 was repeated using recombinant human CD39L4 (rhCD39L4). 100 nmol of ATP (2 mM) was combined with increasing amounts of rhCD39L4 (0.03125 μg, 0.0625 μg, 0.125 μg, 0.25 μg, 0.5 μg, 1.0 μg). Likewise in a second series of reactions, 100 nmol of ADP (2 mM) was combined with the same increasing amounts of rhCD39L4 for 5 minutes. The reactions were stopped after 5 minutes and free phosphate was measured using the Malachite Green assay as described above. […] As such, the necessary preference of the phosphatase for ADP as compared to ATP is present.

[3] = enzyme as obtained from R&D Systems; cited from earlier work
[4] = Specific activity of the phosphatase (free phosphate released per time per amount); assay type: biochemical
Text: Phosphatases used in embodiments of the invention have a high specific activity on ADP. The specific activity of the phosphatase used in the examples is the amount of free phosphate released from a substrate per unit time and per amount of phosphatase under a given set of conditions, and may be determined at the rising phase of an enzymatic dose curve, such as the hydrolysis curve as described above. In some embodiments, the phosphatase has a specific activity of greater than 100 pmol/min/μg under optimal conditions. The conditions may include optimal pH, salt concentrations, and the presence of any cofactor. In other embodiments, the phosphatase has a specific activity of greater than 1,000 pmol/min/μg. In still other embodiments, the phosphatase has a specific activity of greater than 20,000 pmol/min/μg. When phosphatases having lower specific activity are used, larger amounts of such phosphatases or longer reaction times may be used to achieve the same level of hydrolysis as can be achieved with a phosphatase having higher specific activity.

ERK1: extracellular signal-regulated kinase 1 from R&D Systems
slope of the curve OD versus quantity of ERK1 ([1]; 0.2 μg CD39L2, 20 minutes): 0.7728 OD/μg
specific activity before coupling efficiency adjustment ([1]; 20 minutes): 157.69 pmol/min/µg
specific activity adjusted for the coupling efficiency ([1]; coupling efficiency 0.4): 394.22 pmol/min/µg

B1: rmCD39L2: recombinant mouse CD39L2 phosphatase (protein, UniProt Q3U0P5 1-455, looked up)
Ectonucleoside triphosphate …: MRKIPNHGTLRMTKVAYPLGLCVGLFIYVAYIKWHRASAAQAFFTIAGAASGARWTQQAFSSPGSAARGHEVFYGIMFDAGSTGTRIHVFQFARPPGETPTLTHETFKALKPGLSAYADDVEKSAQGIQELLNVAKQHIPYDFWKATPLVLKATAGLRLLPGEKAQKLLQKVKEVFKASPFLVGDDCVSIMNGTDEGVSAWITVNFLTGSLKTPGSSSVGMLDLGGGSTQITFLPRVEGTLQASPPGHLTALQMFNRTYKLYSYSYLGLGLMSARLAILGGVEGKPAENDKELVSPCLSPRFRGEWEHAEVTYRISGQKAVGLYELCASRVSEVLRNKVHRTEEAQHVDFYAFSYYYDLAASFGLIDAEKGGSLVVGDFEIAAKYVCRTLETQPPSSPFACMDLTYISLLLHEFGFPGDKVLKLARKIDNVETSWALGAIFHYIDSLKRQKVPAL
times greater activity with ADP than with ATP ([2]; phosphatase at 0.25 μg): 30-40 times
specific activity [3]: > 100,000 pmol/min/μg

B2: rhCD39L4: recombinant human CD39L4 phosphatase (protein, UniProt O75356 25-428, looked up)
Nucleoside diphosphate …: NQQTWFEGIFLSSMCPINVSASTLYGIMFDAGSTGTRIHVYTFVQKMPGQLPILEGEVFDSVKPGLSAFVDQPKQGAETVQGLLEVAKDSIPRSHWKKTPVVLKATAGLRLLPEHKAKALLFEVKEIFRKSPFLVPKGSVSIMDGSDEGILAWVTVNFLTGQLHGHRQETVGTLDLGGASTQITFLPQFEKTLEQTPRGYLTSFEMFNSTYKLYTHSYLGFGLKAARLATLGALETEGTDGHTFRSACLPRWLEAEWIFGGVKYQYGGNQEGEVGFEPCYAEVLRVVRGKLHQPEEVQRGSFYAFSYYYDRAVDTDMIDYEKGGILKVEDFERKAREVCDNLENFTSGSPFLCMDLSYITALLKDGFGFADSTVLQLTKKVNNIETGWALGATFHLLQSLGISH
specific activity on ADP [4]: > 1,000 pmol/min/μg
level of activity compared with rhCD39L2 ([2]; Example 9, up to 1.0 μg): lower level of activity than rhCD39L2
